Assays:
[1] = molecular target: Grb2 SH2 (UniProt P62993); assay: SH2 binding enrichment of the phosphorylated peptide, bacterial display (enrichment ratio); higher = better substrate or ligand; peptides without Tyr show the background
[2] = molecular target: c-Src SH2; assay: as above
[3] = molecular target: SHP2-C SH2; assay: as above
[4] = molecular target: Fes (UniProt P07332); assay: phosphorylation enrichment, bacterial display (enrichment ratio); higher = better substrate or ligand; peptides without Tyr show the background
[5] = test system: c-Abl (mouse); assay: as above
[6] = molecular target: Hck (UniProt P08631); assay: as above
[7] = molecular target: FGFR1 (UniProt P11362); assay: as above
[8] = test system: Fer (mouse); assay: as above
[9] = molecular target: MERTK (UniProt Q12866); assay: as above
[10] = molecular target: FGFR3 (UniProt P22607); assay: as above
[11] = test system: AncSZ; assay: as above
[12] = test system: c-Src; assay: as above
[13] = molecular target: EPHB1 (UniProt P54762); assay: as above
[14] = molecular target: Jak2 (UniProt O60674); assay: as above
[15] = molecular target: EPHB2 (UniProt P29323); assay: as above
[16] = molecular target: Fyn (UniProt P06241); assay: as above
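Throughout, for SH2 binding enrichment of the phosphorylated peptide, bacterial display: peptide library displayed on the E. coli surface as eCPX fusions, selected cells deep-sequenced, score is each peptide's frequency after selection divided by its frequency in the input.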
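Throughout, for phosphorylation enrichment, bacterial display: 11-residue human phosphosite peptides and single-mutation variants displayed on the E. coli surface, counted by deep sequencing, each peptide's frequency after selection divided by its frequency in the unselected input library; frequency after pTyr selection over input frequency; kinase dosed for 20-30% of maximal phosphorylation in three min.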

Chain of FGFR3 (P22607 whole entry, looked up): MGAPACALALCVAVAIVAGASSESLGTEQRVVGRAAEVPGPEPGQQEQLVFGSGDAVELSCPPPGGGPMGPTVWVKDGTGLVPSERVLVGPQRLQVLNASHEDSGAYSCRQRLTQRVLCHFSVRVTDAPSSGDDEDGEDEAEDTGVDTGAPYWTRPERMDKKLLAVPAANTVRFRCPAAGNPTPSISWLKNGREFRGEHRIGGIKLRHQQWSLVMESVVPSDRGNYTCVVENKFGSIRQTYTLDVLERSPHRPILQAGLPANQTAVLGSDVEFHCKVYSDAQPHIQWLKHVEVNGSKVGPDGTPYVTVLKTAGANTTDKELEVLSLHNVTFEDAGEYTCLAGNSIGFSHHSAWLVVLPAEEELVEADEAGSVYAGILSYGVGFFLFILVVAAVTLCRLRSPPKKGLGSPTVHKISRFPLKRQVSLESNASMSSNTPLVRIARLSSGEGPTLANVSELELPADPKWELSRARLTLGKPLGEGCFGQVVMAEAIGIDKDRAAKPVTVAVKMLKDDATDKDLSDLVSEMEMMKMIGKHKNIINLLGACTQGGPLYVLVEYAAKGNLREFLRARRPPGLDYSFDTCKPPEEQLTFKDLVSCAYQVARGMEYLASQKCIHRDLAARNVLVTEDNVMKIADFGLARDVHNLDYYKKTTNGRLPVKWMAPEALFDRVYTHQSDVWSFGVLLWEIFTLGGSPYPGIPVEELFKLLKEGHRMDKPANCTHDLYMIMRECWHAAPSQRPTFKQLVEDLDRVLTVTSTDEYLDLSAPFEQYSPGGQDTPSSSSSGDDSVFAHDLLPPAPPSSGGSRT
Chain of Hck (P08631 whole entry, looked up): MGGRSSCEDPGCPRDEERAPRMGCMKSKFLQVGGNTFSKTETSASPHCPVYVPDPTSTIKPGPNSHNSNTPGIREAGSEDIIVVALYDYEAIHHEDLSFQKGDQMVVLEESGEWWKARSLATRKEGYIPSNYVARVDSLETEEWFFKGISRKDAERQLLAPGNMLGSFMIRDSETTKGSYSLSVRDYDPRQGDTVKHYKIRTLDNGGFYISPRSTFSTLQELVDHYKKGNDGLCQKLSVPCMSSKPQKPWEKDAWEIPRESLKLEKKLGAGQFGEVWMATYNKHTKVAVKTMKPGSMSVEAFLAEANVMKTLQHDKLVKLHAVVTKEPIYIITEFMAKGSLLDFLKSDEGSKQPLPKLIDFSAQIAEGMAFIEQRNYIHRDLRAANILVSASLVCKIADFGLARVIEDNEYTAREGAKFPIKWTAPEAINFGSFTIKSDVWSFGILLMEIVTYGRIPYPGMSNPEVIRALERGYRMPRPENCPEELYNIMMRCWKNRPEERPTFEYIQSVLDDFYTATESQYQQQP
Chain of Fes (P07332 whole entry, looked up): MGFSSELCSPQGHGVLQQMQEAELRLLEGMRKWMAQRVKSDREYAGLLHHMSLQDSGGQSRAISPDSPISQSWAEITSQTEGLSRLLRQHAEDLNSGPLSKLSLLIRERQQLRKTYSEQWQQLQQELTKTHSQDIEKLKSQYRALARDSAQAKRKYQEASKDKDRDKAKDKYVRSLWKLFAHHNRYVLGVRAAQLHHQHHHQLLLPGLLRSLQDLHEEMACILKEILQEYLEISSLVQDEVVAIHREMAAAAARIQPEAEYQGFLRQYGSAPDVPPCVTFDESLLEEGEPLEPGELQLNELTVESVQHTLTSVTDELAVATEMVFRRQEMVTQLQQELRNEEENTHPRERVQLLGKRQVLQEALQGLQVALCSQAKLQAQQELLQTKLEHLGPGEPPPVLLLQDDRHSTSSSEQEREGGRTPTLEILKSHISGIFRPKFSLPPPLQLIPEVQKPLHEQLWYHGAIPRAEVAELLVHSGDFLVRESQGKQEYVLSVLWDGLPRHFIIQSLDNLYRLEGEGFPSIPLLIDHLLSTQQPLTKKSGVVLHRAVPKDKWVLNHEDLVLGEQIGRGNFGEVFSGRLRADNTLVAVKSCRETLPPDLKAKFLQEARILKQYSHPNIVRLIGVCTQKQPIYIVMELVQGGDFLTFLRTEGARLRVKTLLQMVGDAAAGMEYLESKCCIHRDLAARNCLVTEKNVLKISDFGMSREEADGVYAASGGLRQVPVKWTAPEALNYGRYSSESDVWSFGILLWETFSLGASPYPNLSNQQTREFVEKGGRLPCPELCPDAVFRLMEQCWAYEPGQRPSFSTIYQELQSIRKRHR
Chain of Jak2 (O60674 whole entry, looked up): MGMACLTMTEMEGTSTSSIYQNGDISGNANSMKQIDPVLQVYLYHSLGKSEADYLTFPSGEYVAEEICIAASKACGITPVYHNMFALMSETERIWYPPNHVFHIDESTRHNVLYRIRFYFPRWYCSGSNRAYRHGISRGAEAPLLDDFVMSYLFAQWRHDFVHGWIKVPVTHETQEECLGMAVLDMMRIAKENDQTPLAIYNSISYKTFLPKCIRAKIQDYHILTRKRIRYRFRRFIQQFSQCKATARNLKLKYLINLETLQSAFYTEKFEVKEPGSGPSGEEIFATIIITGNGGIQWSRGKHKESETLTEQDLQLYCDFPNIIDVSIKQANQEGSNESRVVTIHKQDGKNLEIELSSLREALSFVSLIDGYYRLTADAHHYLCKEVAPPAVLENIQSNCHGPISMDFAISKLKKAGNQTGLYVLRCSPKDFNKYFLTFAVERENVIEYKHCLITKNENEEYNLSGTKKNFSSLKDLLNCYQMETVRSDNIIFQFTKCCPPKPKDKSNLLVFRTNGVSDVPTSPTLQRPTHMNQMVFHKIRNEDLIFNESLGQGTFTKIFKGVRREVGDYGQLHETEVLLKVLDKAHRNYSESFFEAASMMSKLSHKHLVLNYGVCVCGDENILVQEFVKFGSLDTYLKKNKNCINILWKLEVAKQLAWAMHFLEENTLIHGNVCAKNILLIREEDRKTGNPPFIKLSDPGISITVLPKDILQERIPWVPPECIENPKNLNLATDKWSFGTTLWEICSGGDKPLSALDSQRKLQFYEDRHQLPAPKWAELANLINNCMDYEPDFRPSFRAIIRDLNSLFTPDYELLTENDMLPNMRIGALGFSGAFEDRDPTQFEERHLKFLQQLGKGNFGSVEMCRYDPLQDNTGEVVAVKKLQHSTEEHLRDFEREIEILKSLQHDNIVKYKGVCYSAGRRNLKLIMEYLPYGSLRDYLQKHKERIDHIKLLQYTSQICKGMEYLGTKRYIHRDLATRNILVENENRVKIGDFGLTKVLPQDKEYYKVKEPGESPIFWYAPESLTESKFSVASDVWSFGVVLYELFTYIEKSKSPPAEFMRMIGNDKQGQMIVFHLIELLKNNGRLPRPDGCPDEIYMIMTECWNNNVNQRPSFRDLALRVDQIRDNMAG
Chain of MERTK (Q12866 whole entry, looked up): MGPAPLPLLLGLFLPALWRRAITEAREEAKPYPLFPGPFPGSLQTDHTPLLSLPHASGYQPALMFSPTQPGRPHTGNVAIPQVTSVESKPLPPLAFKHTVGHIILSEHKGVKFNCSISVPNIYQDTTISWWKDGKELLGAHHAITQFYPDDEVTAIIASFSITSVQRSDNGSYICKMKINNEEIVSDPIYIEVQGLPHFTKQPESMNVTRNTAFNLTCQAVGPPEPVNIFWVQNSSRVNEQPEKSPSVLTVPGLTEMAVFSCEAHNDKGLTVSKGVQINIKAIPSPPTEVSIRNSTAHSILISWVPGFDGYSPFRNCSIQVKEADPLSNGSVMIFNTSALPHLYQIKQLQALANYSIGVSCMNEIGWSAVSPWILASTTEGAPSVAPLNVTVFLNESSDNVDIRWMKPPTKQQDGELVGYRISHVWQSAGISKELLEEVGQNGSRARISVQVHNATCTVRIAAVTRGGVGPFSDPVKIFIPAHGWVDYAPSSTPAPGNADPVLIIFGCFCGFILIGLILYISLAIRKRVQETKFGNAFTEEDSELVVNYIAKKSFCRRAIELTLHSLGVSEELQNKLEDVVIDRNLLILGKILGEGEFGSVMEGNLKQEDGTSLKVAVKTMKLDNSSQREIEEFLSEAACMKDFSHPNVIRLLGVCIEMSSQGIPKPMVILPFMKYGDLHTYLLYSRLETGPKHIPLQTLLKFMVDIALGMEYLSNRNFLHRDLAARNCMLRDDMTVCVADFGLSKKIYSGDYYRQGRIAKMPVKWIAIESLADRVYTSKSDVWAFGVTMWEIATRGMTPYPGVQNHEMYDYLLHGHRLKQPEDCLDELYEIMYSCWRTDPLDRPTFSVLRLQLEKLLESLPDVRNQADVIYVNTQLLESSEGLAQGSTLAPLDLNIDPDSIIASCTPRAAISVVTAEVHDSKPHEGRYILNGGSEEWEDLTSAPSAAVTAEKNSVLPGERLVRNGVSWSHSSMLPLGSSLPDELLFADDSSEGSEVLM
Chain of Fyn (P06241 whole entry, looked up, the tested form may be a part): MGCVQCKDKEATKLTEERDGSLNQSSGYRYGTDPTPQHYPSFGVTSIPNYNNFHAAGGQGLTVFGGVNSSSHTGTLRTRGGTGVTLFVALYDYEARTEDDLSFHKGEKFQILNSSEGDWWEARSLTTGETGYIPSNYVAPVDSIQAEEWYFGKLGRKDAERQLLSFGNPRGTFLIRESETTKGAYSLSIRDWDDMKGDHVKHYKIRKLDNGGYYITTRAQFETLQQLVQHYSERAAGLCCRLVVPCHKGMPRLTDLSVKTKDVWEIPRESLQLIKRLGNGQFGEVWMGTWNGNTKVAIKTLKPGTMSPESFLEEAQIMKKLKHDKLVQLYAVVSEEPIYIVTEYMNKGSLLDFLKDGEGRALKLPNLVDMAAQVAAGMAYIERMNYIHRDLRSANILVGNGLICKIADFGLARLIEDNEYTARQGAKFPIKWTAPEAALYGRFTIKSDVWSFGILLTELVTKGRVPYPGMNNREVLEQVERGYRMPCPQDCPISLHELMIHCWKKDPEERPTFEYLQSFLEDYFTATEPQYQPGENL

SH2 binding enrichment [1]	SH2 binding enrichment [2]	SH2 binding enrichment [3]	Sequence	phosphorylation enrichment [4]	phosphorylation enrichment [5]	phosphorylation enrichment [6]	phosphorylation enrichment [7]	phosphorylation enrichment [8]	phosphorylation enrichment [9]	phosphorylation enrichment [10]	phosphorylation enrichment [11]	phosphorylation enrichment [12]	phosphorylation enrichment [13]	phosphorylation enrichment [14]	phosphorylation enrichment [15]	phosphorylation enrichment [16]
0.792	0.484	0.747	EHVMPYAANKN [GRIN2A_Y1431]	0.463	0.374	0.358	0.361	0.253	0.322	0.344	0.53	0.375	0.392	0.56	0.302	0.313
0.792	0.381	0.664	EKHGQYLIGHG [EPHB4_Y581_D576E]	0.719	0.543	0.475	0.503	0.381	0.46	0.5	0.618	0.396	0.413	0.555	0.408	0.42
0.696	0.47	0.734	EKLQQYIAPGM [EPHB3_Y600]	0.759	0.582	0.363	0.389	0.435	0.328	0.506	0.589	0.412	0.401	0.927	0.35	0.334
0.912	4.61	0.753	EKSREYHRLFE [PIK3R1_Y463_D464H_YF]	0.737	0.486	0.429	0.526	0.409	0.427	0.538	0.656	0.442	0.407	0.51	0.483	0.358
0.705	0.474	0.941	ELANYYKLHHI [AK7_Y391]	0.591	0.565	0.743	6.91	0.629	3.36	4.77	0.647	0.762	13.7	6.75	12.3	0.566
0.831	0.513	1.01	ELELLYPDRNS [NYX_Y284_L285P]	1.27	0.799	0.534	0.776	0.463	0.433	0.759	1.17	0.489	0.556	1.03	0.544	0.492
0.891	0.419	0.555	ELPEKYSQNIY [PKP2_Y626]	0.921	0.658	0.905	0.52	0.475	0.384	0.763	0.905	0.575	0.459	0.891	0.526	0.762
0.827	1.9	1.63	ELQGTYTSLQQ [KIF3C_Y574_R571Q]	0.995	0.768	1.74	0.63	0.592	0.641	0.595	0.984	3.34	0.638	0.867	0.862	2.63
